Assay: soluble on expression in E. coli; label from the status in PepcDB or PDB records

Sequence | soluble on expression in E. coli
MGGSLGLALQEWGRFKSVIGYDHNALHAKLALTLGLVDECVGFEKILECDVIFLAIPVEGIIGCLKKMTSIKKSATIIDLGGAKAQIIRNIPKSIRKNFIAAHPMCGTEFYGPKASVKGLYENALVILCDLEDSGTEQVEIAKEIFLGVKARLIKMKSNEHDTHVAYISHLPHVLSYALANSVLKQNDPEMILSLAGGGFRDMSRLSKSSPLMWKDIFKQNRDNVLEAIKKCEKEIVQAKAWIENNDYESLAEWMAQANKLQEFMLEHHHHHH | not soluble
MAHHHHHHMLVSERAQPVRLFNCLLLRAHKDDESDGAACALHKNAASTSPTTDPIAAATAVGATRLYFTEGGPSSSLTALQRYLKVEEAHTTCPLLRVLQLAPQAPTGNMQPLVYVELDTPNAVSLSDDAQGRREAVLTTCSGVCTQETMPSRWYHAPVKATLCVFQEFMRAPTTSAASEPAFWAFLESVVRYHARDFYCGAVQVELQCVFVPTFEEKQNTAYSVDVFGDYVNEKEGQAQQSSPAAGKGRTAMKICVKSTEAFEHVMAYLKTQCPLLEADFRSSHLVVYAKWSSQLSAVRDSSHSQPPAADATGAVEQAACFVWLQDDAGGGGRDGVYADAALEALLDELTLAAASISTPSRAAAVLQEEGVSSFFEACCLTHTLKRVIRKHFQAVVLRQRPLFHWVISLPPYARLSRSTTSAAVTAMRFRDNAAVSRAVWGATQMLVHWQQLSNSAHALANEALKQSFGRGSGPSRQIVSAPARVPRQRRAIQQSALYGDTFSGGSALDRQRGKVNVPHLYGADEGHDASISLSSAQRGSVMAASGLFHNLRSIKEDSFNNTSVLDAEDVFGSNPKLTTRVVKRLAQSRTSVHTAQ | not soluble
LMGDDKVKKEVGRASWKYFHTLLARFPDEPTPEEREKLHTFIGLYAELYPCGECSYHFVKLIEKYPVQTSSRTAAAMWGCHIHNKVNEYLKKDIYDCATILEDYDCGCSDSDGKRVS | soluble
MSLSARAEDINNIENKTIGHGRTSYNKSVSGRVENIRLSTESVDYVVLGSGDTFTFNGIVGERTKERGYQVASVIMDGDFTDGLGGGICQTSTTLYNAVLDAGLTVLERHPHSLPVGYVEEGMDAMVSWGSADLRFRNDFDYPVVIRGGVDKEKGEVWFDIREGHHHHHH | soluble
LDEYQVSQDRLVESEERYRQLVESAPDAVLIHCDGRYVFANPAALRLYGADTADQLLGREITDFVHPNSRQVVAERIKLLYQERSPAPLCEQQIVRLDGTVVDVEVVGIPYSHQGRPAVQAVLREIT | not soluble
SSSLKIASTQEARQYFDTDRVVVDAVGSDFTDVGAVIAMDYETDVIDAADATKFGIPVFAVTKDAQAISADELKKIFHIIDLENKFDATVNAREIETAVNNYEDSILPPFFKSLKEYVSRYLIQFDCPGHQGGQYYRKHPAGREFYDFFGETVFRADLCNADVALGDLLIHEGPAVAAEKHAARVYNADKTYFVLGGSSNANNTVTSALVSNGDLVLFDRNNHKSVYNSALAMAGGRPVYLQTNRNPYGFIGGIYDSDFDEKKIRELAAKVDPERAKWKRPFRLAVIQLGTYDGTIYNAHEVVKRIGHLCDYIEFDSAWVGYEQFIPMMRNSSPLLIDDLGPEDPGIIVVQSVHKQQAGFSQTSQIHKKDSHIKGQLRYCDHKHFNNSFNLFMSTSPFYPMYAALDVNAAMQEGEAGRKLWHDLLITTIEARKKLIKAGSMFRPFVPPVVNGKKWEDGDTEDMANNIDYWRFEKGAKWHAYEGYGDNQYYVDPNKFMLTTPGINPETGDYEDFGVPATIVANYLRDHGIIPEKSDLNSILFLMTPAETPAKMNNLITQLLQLQRLIEEDAPLKQVLPSIYAANEERYNGYTIRELCQELHDFYKNNNTFTYQKRLFLREFFPEQGMLPYEARQEFIRNHNKLVPLNKIEGEIALEGALPYPPGVFCVAPGEKWSETAVKYFTILQDGINNFPGFAPEIQGVYFKQEGDKVVAYGEVYDAEVAKNDDRYNN | soluble
SNAMPLPKSLKYGDTIGIYSPSSPVTYTSPKRFERAKSYLLQKGFHILEGSLTGRYDYYRSGSIQERAKELNALIRNPNVSCIMSTIGGMNSNSLLPYIDYDAFQNNPKIMIGYSDATALLLGIYAKTGIPTFYGPALVPSFGEFEPFVDDTYKYFLETLLHDQALPYNIKQPLFWSDEFINWEEKTKEKELRPNNWISVTNGQATGRVIGGNLNTIQGIWGSPYMPCIQEGDILFIEDSSKDAATIERSFSFLKINGVFDKVSGIILGKHEQFDDCGTNRKPYEILLEVLQNQRIPLLADFDCCHTHPMITMPIGVQVKMDATNKTIHILEKWKI | soluble
MKRVFCPKCDGAITISRETLSQASPNGSLSLLCPHCCHQLRIRLVSKSDNSHNHKTEQEEQELAQELDRSRGYIVVLENIFGYRQEFALREGDNGIGRRNKDSVVDIAVLTGDPSMGRHHCILRVTPKKDGSFLYSIADDDSLVGTFVGGRLLDKKEWCRLNDGDVITMGATSAILYTSDHKDTESEEKN | not soluble
MLDVQHSKFGFTKGCIIAVFLLSLSRTLNRGQLSLDRFKFWQPTSQLLALDMCLCDASALEHHHHHH | not soluble
MLICNSSFPYLQVDYKIGVKGLLAKSKEDIDKCCKGEYFMQLKYVDTKEEIIAINRKSKHIEPHLHNALEIVCVTSGSLELGVGQELYHMEKGDIGFVFPDVIHHYQVLTPGVNKATYLIASPFSIDKFADIMQSMAPEYPIIKAEKVEPEVYRVINAILETEQSDITVAQAYLQIVLARCIGKLNLVEKSSVGSNDLIYQTVSYISANFKKKFSLEEMAKDLGVGKYVLSRLFSKTFHRNFNQYLNDARLNYACHRLENTSDSITNICLDSGFESQRTFNRVFKEKYKISPSDYRSTCVKEMLS | not soluble
MGSDKIHHHHHHMMKALILAGGSGERFWPLSTPETPKQFLKLFGNKSLMRWTFERVLEEMDPKDVIVVTHKDYVERTKKELPELPDENIIAEPMKKNTAPACFIGTKLADDDEPVLVLPADHRIPDTKKFWKTVKKALDALEKYDGLFTFGIVPTRPETGYGYIEIGEELEEGVHKVAQFREKPDLETAKKFVESGRFLWNSGMFLWKAREFIEEVKVCEPSIYENLKDVDPRNFEELKKAYEKVPSISVDYAVMEKSKKVRVVKADFEWSDVGNWSSVREIEGYTEESDEVILVDSDRVFVKTHNKPIAVVGLSDVIVIDTPNGILICKEEYAQKVREVVKKLFRTS | not soluble
MKLVICIVQDDDAGELIDVLTDKGLRVTKLATTGGFLKAGNTTLMIGVEEKAVDGVIETIEDVCKTRQQVVTSPSPVAGSTGVYVPYPIDVEVGGATIFVVDVDKFIKI | not soluble
MDSQVEGKISPSQKESSSTSGLVSPSEDGPAHQKIHRDQLSVDQIKKIREERAQKRQVRRNSLISQGKDPDFPTPDLQFIERPFLPINHDNSKGLTPATIQVTQDSLDVKIMTYNTLAQTLIRRDFFPESGPALKWHKRSKVLVHELKKYRPDVVSLQEVDYNELNFWQENFHKLGFDVIFKRHEGKTHGLLVAWNNKKFQLDNDWMLDYDNILAGNVISARTRTKNIALIISLYFKGITDSSSRGIIVANTHLFWHPFGVFERLRQSYLVLQKIQEIKACSKYNGWHSLLMGDFNTEPEEPPYLAITKRPLILKGPIRAMVECSLAYRYSKKRNGEESDQDDEECDEKSRGEGHSDQPQNPKPESFTATKEEKALVNQLVALHNSLHVKGVSLYGIGYGKVHPENANGSHGEPGLSNWANTWCGLLDYIFYIEGDHNQDTRQKEPLNAFEGNNNVKIIGYLRMPCAQEMPKHSQPFEGEYASDHISLMCQIRLFFGGEKVHSLK | not soluble
MMLRTEEMILNVGPQHPSTHGVFRLILKIDGEIIQEATPVIGYLHRGTEKIAEGLQYTQIIPYTDRMDYLSAMTNNYVLCHAVETMMGIEVPERAEYLRVLAMELGRIASHLVWWGTYLLDLGATSPFLYAFREREMIINLLNELSGARLTFNYMRIGGVKWDAPDGWIDKVKQFVPYMREKLHGYHELVTGNEIFRQRVTGVGRYTKEEAISYSLSGVNLRSTGVKWDLRKDEPYSIYDRFDFDVPVRDSGDCLARYECRMAEIEQSLCIIEQACEQFPPEGPIMGKVPRIIKAPPGETFVRIEAPRGEIGCYIASDGKKEPYRLKFRRPSFYNLQILPKLLKGENLANVIAILGSIDIVLGEVDG | not soluble
MTKKKAKKNQKTGAAAAPPHESQKKEKENDFEMLEDIKRDEDLFFSETDISNISNFIRTTNKSFNSLGNTFVEQFTNRCSLAIFQALATCFEIHSEERDDVIRRLNIIYIVWRLPDLEPELRPKPPKNLSDVYSHPYATFLFAAEQIEHRIEAMLARIIVSNNINQVEKLTAPDFIQKAAAGGLTVVVEGIDRTGFVDWCEANTDHWPEVHDSVVPLPKAMRELGCERKDYESGMAEAFYPIMHNAPTQLPPRMEALEQEDPIIREWRLKVDPENTSATPVIYSMCSGDKMQEELMQAFDELEPTIAEYQSDLIAGMTAPELEELNKQIDCDDQMSQSSDSAPPSEVSSDLELDTALDIRDGMTMPLVDLKDEVIEGCVDRILDGTTLTTSKSDMMIQFVRTALITHPQYDRLLQASVLDENIISFIRTNVKFAGAFLVRNALSEQDTCLLFKRYMRLCEGVNSTVHSLETVLKLSKEFIEHDKLTQEHREVVLAFVRHTIRTCEGDRTVRLVAMLVKKLLRERVLNVEDIAADVKPFTLKYTDNRECTALYQSMINMQNGGGGGGQENMTTSTTTTTTTTKSSSPNSLSTTTTTTSHNPGASATTTTTTVVKTCGPATFKQTSRKVVLQFKNPSQNAHF | not soluble
MRMVDIISKKRDGKALSTEEIQFFIDGYTNGEIPDYQASALAMAIFFQDMNDQERADLTMAMVGSGDTIDLSEIEGIKVDKHSTGGVGDTTTLVLAPLVAAVGVPVAKMSGRGLGHTGGTIDKLESIEGFHIELDKKDFIDLVNRDKVAVIGQSGNLTPADKKMYALRDVTGTVNSIPLIASSIMSKKIAAGADAIVLDVKTGAGAFMKTDEDAENLAHAMVRIGNNVGRNTMAVISDMSQPLGEAIGNALEVKEAIDTLKGQGPEDLTELVLVLGSQMVVLAKQAETLDEARAKLIEVIENGAALEKFKTFLSNQGGDASIVDHPEKLPQAKYQIEVPAKTSGFVSQIVADEIGIAAMILGAGRATKEDEINLAVGLMLRKKVGDAVKEGESLVTIFADQEDVENVKAKIYENIQISDHAIAPTLVHKVITE | not soluble
LKFPKVAVVGSRACSKQGAKSVEKVIQGLENELVIVSGLAKGIDTAAHMAALQNGGKTIAVIGTGLDVFYPKANKRLQDYIGNDHLVLSEYGPGEQPLKFHFPARNRIIAGLCRGVIVAEAKMRSGSLITCERAMEEGRDVFAIPGSILDGLSDGCHHLIQEGAKLVTSGQDVLAEFEF | not soluble
MDTMRQRILVVDDDASLAEMLTIVLRGEGFDTAVIGDGTQALTAVRELRPDLVLLDLMLPGMNGIDVCRVLRADSGVPIVMLTAKTDTVDVVLGLESGADDYIMKPFKPKELVARVRARLRRNDDEPAEMLSIADVEIDVPAHKVTRNGEQISLTPLEFDLLVALARKPRQVFTRDVLLEQVWGYRHPADTRLVNVHVQRLRAKVEKDPENPTVVLTVRGVGYKAGPPTSGSHHHHHH | soluble
MEQRTAEWFQARLGKVTASNIYNVLSKTAKGTPTSKYEEYKIKLMTERLTEEISQSYLTPAMQWGIEHEEDALKEYAIIYDTEVIKCGFIQHPTIEMAGASPDGLIGEEGLVEVKCPHSTKHLRFYMDGTIKPEYKAQMQFQMACTGRQWCDFVSYDPHFVGRSLRLRMKIKRIHRDEKQIEQINQAVEIFLEEIEQEMKQILTQAA | not soluble

— the DeepSol protein solubility set
